The values below come from PMC11666439.

Assay [1] concerns the target ACE-2-Fc fusion protein (human) (UniProt Q9BYF1). Put plainly: BLI. A general note: BLI is a label-free optical method that tracks binding on a fibre tip over time.
Assay [2] has as its target SARS-CoV-2 spike wt (in-house) (SARS-CoV-2) (UniProt P0DTC2). Put plainly: ELISA. Background: An ELISA detects its analyte on a solid surface through an enzyme-linked reagent.

Sequence of UniProt Q9BYF1 (Q9BYF1 18-740): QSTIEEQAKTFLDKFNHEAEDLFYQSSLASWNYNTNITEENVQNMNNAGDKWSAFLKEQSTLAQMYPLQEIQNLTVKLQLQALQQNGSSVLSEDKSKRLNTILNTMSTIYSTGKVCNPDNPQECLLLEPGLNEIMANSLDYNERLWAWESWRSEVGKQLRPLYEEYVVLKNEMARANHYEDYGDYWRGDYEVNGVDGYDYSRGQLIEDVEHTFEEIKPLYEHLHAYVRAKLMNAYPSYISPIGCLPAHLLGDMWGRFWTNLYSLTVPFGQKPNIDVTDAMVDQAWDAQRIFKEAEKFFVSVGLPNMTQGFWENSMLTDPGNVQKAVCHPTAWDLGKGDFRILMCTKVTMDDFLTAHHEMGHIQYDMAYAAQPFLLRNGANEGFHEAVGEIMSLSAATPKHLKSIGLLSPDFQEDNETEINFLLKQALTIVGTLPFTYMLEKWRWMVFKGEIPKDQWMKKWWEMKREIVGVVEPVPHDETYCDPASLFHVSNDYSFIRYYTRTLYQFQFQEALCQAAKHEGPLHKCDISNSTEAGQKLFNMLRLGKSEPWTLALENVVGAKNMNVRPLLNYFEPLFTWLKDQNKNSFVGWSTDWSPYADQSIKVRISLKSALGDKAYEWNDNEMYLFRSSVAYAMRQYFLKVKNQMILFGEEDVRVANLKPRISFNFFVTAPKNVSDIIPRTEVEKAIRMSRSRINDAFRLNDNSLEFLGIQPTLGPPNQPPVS

By Kd is commonly meant a measure of binding affinity in units of concentration. As usually defined, the koff is the rate constant with which the complex falls apart. One may read the kon as the second-order rate constant of association. A high value points to fast association. In assay [1], “SARS-CoV-2 RBD Omicron BA.2 (domain or fragment)” returned a Kd of 4.47 nM, a fold improvement of kdis compared to the wt of 1.76 fold, a koff of 0.0032 s⁻¹ and a kon of 716000 M⁻¹ s⁻¹.

In the case of SARS-CoV-2 RBD wt (domain or fragment), in assay [1], the Kd was found to be 23.4 nM.

The substance “native MBL from sera (from UniProt P11226 21-248) (natural protein)” came in with a fold increase of binding after total IgG depletion of vaccinee plasma in assay [2] of 2.6 fold.
